Laboratory results taken from publication PMC3699631, “Posttranslational Modifications of the Histone 3 Tail and Their Impact on the Activity of Histone Lysine Demethylases In Vitro” (PLoS ONE, 2013).

How the values were obtained:
human cc-KDM4A [1] = molecular target: T1, human cc-KDM4A (Homo sapiens, UniProt O75164); assay: FDH-assay enzyme kinetics of H3 peptide demethylation, truncated KDM4A; type: biochemical; parameters: key to K m / k cat / k cat /K m: 0 means no demethylation could be detected; settings: cc-KDM4A; for K m / k cat / k cat /K m / demethylation / catalytic activity (in words): FDH-assay; for K m: 50 mM HEPES (pH 7.5), 50 mM NaCl, 50 µM FeSO4, 500 µM α-KG, 500 µM ascorbate, 2 mM NAD, substrate 10–1000 µM, NADH fluorescence 15–30 minutes; for K m / k cat / k cat /K m: triplicate; for k cat / k cat /K m: pH 7.5; for k cat: NADH fluorescence; for demethylation / catalytic activity (in words): compared to H3(1–24)K9me3 where a change is stated
T1 construct: Truncated constructs of KDM4A and KDM4C containing only the catalytic cores (cc-KDM4A/cc-KDM4C); made in house
T1 sequence (O75164 1-350 limits assumed): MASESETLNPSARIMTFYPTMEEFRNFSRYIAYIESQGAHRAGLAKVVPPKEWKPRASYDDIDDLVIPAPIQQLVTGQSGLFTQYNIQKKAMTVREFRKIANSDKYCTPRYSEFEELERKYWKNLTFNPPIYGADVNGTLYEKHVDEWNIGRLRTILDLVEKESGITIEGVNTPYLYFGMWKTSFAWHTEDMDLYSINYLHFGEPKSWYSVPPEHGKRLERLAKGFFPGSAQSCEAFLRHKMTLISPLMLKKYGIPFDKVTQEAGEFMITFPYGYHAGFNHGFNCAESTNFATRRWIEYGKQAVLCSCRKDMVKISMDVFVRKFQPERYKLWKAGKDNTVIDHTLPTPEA
Protocol: (§1) The enzyme kinetics were measured using a Formaldehyde DeHydrogenase Assay (FDH-Assay) and the demethylation of substrates was confirmed when possible by MALDI-TOF-MS, see File S1 for details. The test solution contained 50 mM HEPES (pH 7.5), 50 mM NaCl, 50 µM FeSO4, 500 µM α-KG, 500 µM ascorbate, 2 mM NAD, approximately 0.05 unit of FDH and e.g. 4.88 µM KDM4C (enzyme concentration varied between batches). The reference solution was comprised of the same except substrate. The assay was initiated by adding various concentrations of H3 peptide substrates e.g. H3(1–24)K9me3 (10–1000 µM) and the increase in NADH fluorescence was measured over 15–30 minutes in 30 second intervals. Data analysis and kinetic values were obtained using programs Excel and GraphPad Prism® 5.0. For details, see File S1.
(§2) The standard deviations for k cat/K m were calculated using the statistic law of propagation of errors. Standard errors for Michaelis-Menten Kinetics were automatically given in GraphPad Prism®, with a 95% confidence interval. All enzyme kinetic curves were done in triplicate unless otherwise stated.
Test for activity of enzyme using the fluorescence FDH assay, determination of Vmax and Km of enzymes with substrate, expression and purification of cc-KDM4A and cc-KDM4C software and parameters for the FDH coupled assay, see Lohse et al.^21
as §2, with “kcat/ Km” for “k cat/K m”, “95 %” for “95%”

human cc-KDM4A [2] = molecular target: T1, human cc-KDM4A; assay: competition experiment H3(1–24)K9me3-T11(ph) with H3(1–24)K9me3, truncated KDM4A; type: biochemical
Protocol: (§3) To investigate if H3(1–24)K9me3-T11(ph) could bind to the enzyme and act as an inhibitor, a competition experiment with H3(1–24)K9me3 was carried out.
as §1

cc-KDM4A = assay: MALDI-TOF-MS demethylation, truncated KDM4A; type: biochemical, human
Protocol: as §1
(§4) The reaction mixture was diluted 1: 9 with a saturated solution of α-cyano-4-hydroxycinnamic acid (Aldrich) in a mixture of 65 % acetonitrile and 35 % MilliQ water containing 0.1 % TFA. 1 µl of the sample was spotted onto the target and air dried. The MALDI-TOF MS was carried out on an Ultraflex TOF/TOF (Bruker) operated in positive ion mode with an Ion source voltage of 25 kV, a lens voltage of 7.5 kV and a reflector voltage of 26.3 kV. The system was run in deflection mode with a mass suppression of 500 Da. […]

cc-KDM4C = assay: MALDI-TOF-MS demethylation, truncated KDM4C; type: biochemical, human
Protocol: as §1, §4

human cc-KDM4C = molecular target: T2, human cc-KDM4C (Homo sapiens, UniProt Q9H3R0); assay: competition experiment H3(1–24)K9me3-T11(ph) with H3(1–24)K9me3, truncated KDM4C; type: biochemical
T2 construct: Truncated constructs of KDM4A and KDM4C containing only the catalytic cores (cc-KDM4A/cc-KDM4C); made in house
T2 sequence (Q9H3R0 1-349 limits assumed): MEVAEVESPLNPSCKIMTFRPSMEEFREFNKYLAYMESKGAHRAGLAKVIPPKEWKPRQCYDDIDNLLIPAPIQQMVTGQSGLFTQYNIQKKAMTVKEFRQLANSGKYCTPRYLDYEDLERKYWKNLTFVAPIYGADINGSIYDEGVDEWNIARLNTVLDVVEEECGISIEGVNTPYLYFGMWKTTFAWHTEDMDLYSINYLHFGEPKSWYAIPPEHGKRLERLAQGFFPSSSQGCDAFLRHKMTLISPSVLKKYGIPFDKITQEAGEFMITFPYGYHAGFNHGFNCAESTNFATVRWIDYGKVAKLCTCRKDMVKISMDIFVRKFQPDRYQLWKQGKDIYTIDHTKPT
Protocol: as §3, §1

[3] = SD by propagation of errors, unit: min^−1 * µM^−1 * 10^3
[4] = cc-KDM4A, H3(1–24)K9me3T11(ph) then H3(1–24)K9me3*
[5] = cc-KDM4C, H3(1–24)K9me3T11(ph) then H3(1–24)K9me3*

Row | Substance | K m (human cc-KDM4A [1]) | k cat (human cc-KDM4A [1]) | k cat /K m (human cc-KDM4A [1]; [3]) | demethylation / catalytic activity (in words) (human cc-KDM4A [1]) | competition / inhibition (in words) (human cc-KDM4A [2]; competition with H3(1–24)K9me3, results not shown, enzyme not named, cc-KDM4A in Table 1) | demethylation by MALDI-TOF-MS (in words) (cc-KDM4A) | demethylation by MALDI-TOF-MS (in words) (cc-KDM4C) | competition / inhibition (in words) (human cc-KDM4C; competition with H3(1–24)K9me3, results not shown, enzyme not named, cc-KDM4C in Table 1) | K m (human cc-KDM4A [2]; [4]) | k cat (human cc-KDM4A [2]; [4]) | k cat /K m (human cc-KDM4A [2]; cc-KDM4A, H3(1–24)K9me3T11(ph) then H3(1–24)K9me3*, unit: (min^−1 * µM^−1) * 10^3) | K m (human cc-KDM4C; [5]) | k cat (human cc-KDM4C; [5]) | k cat /K m (human cc-KDM4A [1]; figures and text) [min^-1 * μM^-1 * 10^3] | fold increase in k cat/K m (human cc-KDM4A [1]; compared to H3(1–24)K9me3) [fold]
1 | H3(1–24)K9me2: truncated histone tail, 24 first amino acids from the N-terminus of H3, dimethylated lysine 9 | Below detection | Below detection | Below detection | could not be detected |  |  |  |  |  |  |  |  |  |  | 
2 | H3(1–24)K9me3T11(ph): H3(1–24)K9me3 with phosphorylation of threonine 11 | 0 | 0 | 0 | no detectable turnover | does not act as an inhibitor | no detectable turnover | no detectable turnover | does not act as an inhibitor |  |  |  |  |  |  | 
3 | H3(1–24)K9me3: truncated histone tail, 24 first amino acids from the N-terminus of H3, trimethylated lysine 9; control peptide | 131±16 | 1.1±0.04 | 8.4±1.1 |  |  |  |  |  | 132±23 | 1.4±0.08 | 10.6±1.9 | 43±22 | 0.3±0.05 | 8.4±1.1 | 
4 | H3(1–24)K4me3K9me3: bis-tri-methylated substrate, trimethylated K4 in combination with H3K9me3 | 82±11 | 1.1±0.04 | 13.4±1.9 |  |  | PTM product between mark K4me3 and mark K9me3 | PTM product between mark K4me3 and mark K9me3 |  |  |  |  |  |  | 13±2 | 2
